Data published in patent publication US20240254258A1 (TRELLIS BIOSCIENCE, published 2024).

Target: T1, ALK Extracellullar Domain (ECD), generated by Trellis in mammalian cells (human, UniProt Q9UM73 19-1038)
T1 construct: extracellular domain; Recombinant ECD made in-house in mammalian cells; also called ALK ECD; extracellular domain of ALK
Assay: adsorption ELISA on ALK ECD, serial dilutions, estimate of binding affinity
Method: Purified mAbs were tested in adsorption ELISA using ALK Extracellullar Domain (ECD), generated by Trellis in mammalian cells. TRL10001 is of particular interest based on its sub-nM affinity to the target.

T1 sequence (Q9UM73 19-1038): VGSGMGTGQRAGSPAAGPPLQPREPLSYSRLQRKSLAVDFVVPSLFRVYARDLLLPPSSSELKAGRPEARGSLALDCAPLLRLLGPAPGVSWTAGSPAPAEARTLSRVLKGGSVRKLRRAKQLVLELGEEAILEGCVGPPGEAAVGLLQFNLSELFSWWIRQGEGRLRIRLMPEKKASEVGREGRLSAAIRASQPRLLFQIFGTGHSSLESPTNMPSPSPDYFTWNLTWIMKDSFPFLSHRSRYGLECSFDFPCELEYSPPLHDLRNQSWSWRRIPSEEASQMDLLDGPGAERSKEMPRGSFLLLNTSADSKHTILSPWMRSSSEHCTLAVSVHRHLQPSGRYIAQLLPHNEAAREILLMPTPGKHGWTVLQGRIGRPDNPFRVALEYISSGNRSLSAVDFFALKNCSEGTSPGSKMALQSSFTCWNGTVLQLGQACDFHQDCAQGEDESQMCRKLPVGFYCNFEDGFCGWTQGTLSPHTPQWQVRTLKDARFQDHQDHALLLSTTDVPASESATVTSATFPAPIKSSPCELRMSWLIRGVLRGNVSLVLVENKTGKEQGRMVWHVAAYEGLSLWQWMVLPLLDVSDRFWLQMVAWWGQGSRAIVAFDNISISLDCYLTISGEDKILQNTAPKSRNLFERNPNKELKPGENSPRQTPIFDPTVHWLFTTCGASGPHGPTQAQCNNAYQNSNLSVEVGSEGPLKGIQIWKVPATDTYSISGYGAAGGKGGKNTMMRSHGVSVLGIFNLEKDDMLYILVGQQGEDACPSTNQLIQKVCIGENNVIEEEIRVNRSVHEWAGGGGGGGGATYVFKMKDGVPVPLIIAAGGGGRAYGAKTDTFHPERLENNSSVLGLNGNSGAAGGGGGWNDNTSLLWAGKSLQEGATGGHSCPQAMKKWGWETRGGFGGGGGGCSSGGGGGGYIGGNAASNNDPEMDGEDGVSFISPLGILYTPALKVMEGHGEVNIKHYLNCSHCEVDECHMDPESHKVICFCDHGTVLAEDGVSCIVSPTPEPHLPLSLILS

Affinity | Binder
75 nM | TRL10014 (antibody, IgG1, V domains shown, Native human mAb from donor 210; also called TRL100014) VH: QVQLVESGGGLVKPGGSLRLSCTASGFSFSDSYMNWIRQAPGKGLEWLAYISTSATYTYSADSVKGRFTISRDNAKNSLYLQMNSLRDEDTAVYYCAREGLFYDGLYGMDVWGQGTTVIVSS VL: DILMTQSPLSLPVTPGEPASISCRSSQSLLHSNGYNYLNWYLQKPGQSPQLLIYLGSNRASGVPDRFSGSGSGTDFTLKISSVEAEDVGVYYCMQALHTPRTFGQGTKVEIKR
1 nM | TRL10051 (antibody, IgG1, V domains shown, Native human mAb from donor 223) VH: QVQLVESGGGLVQPGGSLRLSCAASGFTFSSYVMSWVRQAPGKGLEWVSSIRVSGDRAHYADSVKGRFTVSRDDSKNTVYLQMNSLRVEDTAVYYCVKDQAERLLRAVTTHFDYWGQGALVTVSS VL: DIVMTQSPLSSPVTLGQPASISCRSSQSLVHSDGNTYLSWLQQRPGQPPRLLIYKVSRRFSGVPDRFSGSGAGTDFTLKISRVEAEDVGIYYCMQASQFPRTFGQGTKVEIKR
1 nM | TRL10005 (antibody, IgG1, V domains shown, Native human mAb from donor 236) VH: QVQLVESGGGLVKPGGSLRLSCAASGFTFNDHYMTWIRQAPGKGLEWISYISSSGGTIFYAESVKGRFTISRDNANNILFLQMNSLRAEDTAVYYCARGALRFLEWSHLGSWGQGTLVTVSS VL: DIVLTQSPGTLSLSPGERATLSCRASQRVSSSYLAWFQQKPGQAPRLLIYGASTRATGIPDRFSGSGSGTDFTLTISRLEPEDFAVYYCQQYGMSSWTFGQGTKVEIKR
